The nature of the data set: soluble on expression in E. coli; label from the status in PepcDB or PDB records.
As for “MGPSRWPRGGGRLLGRLYLVVTPRPGWSLEATLDRTERALAGGVEVVQLRAKDWEARPTLALGERMLALARRYGVPFFLNDRPDLAALLGADGVHLGQNDLTPEEARRFFAGMVGRSTHAPEQALRALEEGVDYLSVGPVWETPTKPGRPAAGLAYVRWAAENLGEKPWYAIGGIDLGNLDQVLEAGARRIVVVRAILDAPDPERAARALRERLYGVA”, the “soluble on expression in E. coli” value was “soluble”.
Under “SPVRTECPPPAGASTTSAASLIPPPPINTQQPGVATSLLYSGSKFRGHQKSKGNSYDVEVVLQHVDTGNSYLCGYLKIKGLTEEYPTLTTFFEGEIISKKHPFLTRKWDADEDVDRKHWGKFLAFYQYAKSFNSDDFDYEELKNGDYVFMRWKEQFLVPDHTIKDISGASFAGFYYICFQKSAASIEGYYYHRSSEWYQSLNLTHVPEHSAPIYEFR” stands “soluble”; under “MAHHHHHHMPQRSHVPLASPSPLNAPPPLTSRPGPVNYCGAHAEPAAGLNYTHHDDHRSVFRDQASCDPSPSQRALHQQQVHRPRAVSPGPHDGSAPHVSALVARGAVIRADELETILDEQNYIWQMEEYRFRTERQKRLTALQHRQHELMLESARYDQAVAEVERQLARERQRLEELRQMMARNATTSCSPIDREHGLQDPPTAMSDAPHVIARNSSAMHHGQARDHAYSAPHDAPYFPTGASDGLSAMNEEEVIAEV”, “not soluble”.
Then “GMHSNINTLIANHRAGHALDQAFYTDAEVFQTDLQEIFYKEWLFAIPACELDKPGSYVTHQVGNYNVIIVRGADNVIRAFHNACRHRGSVICKAKKGNNPKLVCPYHQWTYELDGRLLWARDMGPDFEPSRHGLKTVHCRELAGLIYICLADEAPDFERFAEVARPYLEVHDLSNAKVAHESSIVERGNWKLVWENNRECYHCGGNHPALCRTFPDDPSVTGIEGGETPSNLQAHFDRCEQAGMPSGFHLSGDGQFRVARMPLKEGAESYTMDGKTAVRRWLGRAAFADAGSLLKFHYPTTWNHFLSDHSIVFRVTPISPTETEVTTKWLVHKDAVEGVDYDLQRLTEVWIATNDEDREVVEFNQMGINSPAYEPGPYSPTQESGVLQFVEWYLSTLKRNSGPHAVAAE”, with “soluble”.
Under “GPGSMYHGNGSVNDAADASFCPQPSPTRPSREAPPSAPPPTGRVTRTQALARLLRGEGSSTHTKPVRAPGNDAKELKVSETRKECVVGEVQADAPPKKSEGTSSHAAVPLAASATITPDDRDDIGAALQEIGDASRRHRRHSHDAEGTSGDAVRDDASDGGAANMSDDYNGDDNSESTCSARRSGAGSAPAEGFSAHPTHARARGRAVSTRQAANALPRMLALQRSFEAEAKHLYEYCGTHVVEWPTLAVEWIPDRAFVDPERDYTLQYLAIGTQAHPLSGAANAVKVMEVAVPVTAAKDVMYGLYGDDDTAGVEAVDPAREGGIDPGKRFANVKGHFHCEQTLTMDAAVLKIRAMPAETNVIAVKTASGFIGVYNLLQDLTQNEAGRTVPDALLCGHRRGGFGLSWNALKPGFIASAADDGYVNYYDVSHRLTIDVREASDVDPALTGPETQPLERLVGHRDIVTDCCWHSSQGHLLASSSMDGDARLWDIRMSAGSSTIPSAHASGATAAQFHPIGAFQLATAGAEGSISLWDIRRTADPVWELNYHGRPITGLQWSPFCETVMLSYGADGRVVLWDLAKTTLPLGYSEDQLAPPEVSFVHIGHVGRVTDASWNSSTTEEWLLASADTTNGVHVYRPLVNVVQDYRAYQH” stands “not soluble”; under “MGSDKIHHHHHHMKRTTKSIQAEIAKGAFRPHTALSTMALAYYQQETTSFAKNMFPVCPVQLSSDNYYVFDKEDLLRDNWNRKPAYGSVDPAVISEHTENYACHVDQMMMGIDNIRQTDLNRRQGPHTKDPRQQRTKVIATQANIHQDAEFSKSFMRKGVWKNEATGTDSVSVTSGQFIKFSNGNSDPIAFFQNKMTEINEETGRTPNRLGLGVNVYNALKEHPAILERVKYGGSTPNPAKVNLNVLAQLFEIDRIVLDRTVQNKAGLGQNADMGYIGDPNSFLLAYATDTPSVEEPSAGYIFTWDMLENGILLPILNYPGAPGTHSELVEGLMAYDMKKTADDLAFFGCDAV”, “not soluble”.
With “MGCLATPVRTEVLKALEYSQRICALRSCSRFIRSPRAMFKRQHTDADVLEHPVSASAPATWSLIGEHTDHAGGVVLMSVAQLRTHVEATTRADDIVSVDYYIADPEMPVQQSAISLSDVFEWQNSLSGDHEPLESP”, the “soluble on expression in E. coli” value is given as “not soluble”.
Under “MTSEKLSAACHCGSVVFTVQLSDGFHTARRCNCSFCRMRGAVAVSAPLSGIKVLKGQDKLTEYRFNTGKAVHFFCSVCGIYTFHQRRSNPDQYGVNVACIENVSPFDFACVEVNDGVTHPSDGGSSGVVGYLRYEPKKSPPVETGGKNILEHHHHHH” stands “soluble”.
In the case of “MGSDKIHHHHHHMSLPGSKLEEARRLVNEKQYNEAEQVYLSLLDKDSSQSSAAAGASVDDKRRNEQETSILELGQLYVTMGAKDKLREFIPHSTEYMMQFAKSKTVKVLKTLIEKFEQVPDSLDDQIFVCEKSIEFAKREKRVFLKHSLSIKLATLHYQKKQYKDSLALINDLLREFKKLDDKPSLVDVHLLESKVYHKLRNLAKSKASLTAARTAANSIYCPTQTVAELDLMSGILHCEDKDYKTAFSYFFESFESYHNLTTHNSYEKACQVLKYMLLSKIMLNLIDDVKNILNAKYTKETYQSRGIDAMKAVAEAYNNRSLLDFNTALKQYEKELMGDELTRSHFNALYDTLLESNLCKIIEPFECVEISHISKIIGLDTQQVEGKLSQMILDKIFYGVLDQGNGWLYVYETPNQDATYDSALELVGQLNKVVDQLFEKASVLY”, the “soluble on expression in E. coli” value was “not soluble”.
Then “MKGDVSPIFSPKHLQFKRPTLWRYGRIQKISIMSSKRSSPTGKLRLLSFLRDLLEDESNSDIIYWFDKSESVFKMSKPHKVAELWGAATGNPGMNYDKMSRGLRYFYTNNTLEKVPGKDARYRFIDSPRHSFLDFSMKTELETPVKRTPLFNISNLISDFEVSNNSLTSSPTSSASSVEPSSPTTTESSLDPSQFVQLTQNLVQFNTFMSQNPMFHTLPLPTQLQVFFNFKTIFPSLFPALV”, with “not soluble”; and “MTHQIVTTQYGKVKGTTENGVHKWKGIPYAKPPVGQWRFKAPEPPEVWEDVLDATAYGPICPQPSDLLSLSYTELPRQSEDCLYVNVFAPDTPSQNLPVMVWIHGGAFYLGAGSEPLYDGSKLAAQGEVIVVTLNYRLGPFGFLHLSSFDEAYSDNLGLLDQAAALKWVRENISAFGGDPDNVTVFGESAGGMSIAALLAMPAAKGLFQKAIMESGASRTMTKEQAASTAAAFLQVLGINESQLDRLHTVAAEDLLKAADQLRIAEKENIFQLFFQPALDPKTLPEEPEKSIAEGAASGIPLLIGTTRDEGYLFFTPDSDVHSQETLDAALEYLLGKPLAEKAADLYPRSLESQIHMMTDLLFWRPAVAYASAQSHYAPVWMYRFDWHPEKPPYNKAFHALELPFVFGNLDGLERMAKAEITDEVKQLSHTIQSAWITFAKTGNPSTEAVNWPAYHEETRETVILDSEITIENDPESEKRQKLFPSKGE”, with “soluble”; and “MTKKDKKEVKVQTVTTEDGETVKVFEDLQGFETFIANETEDDDFDHLHCKLNYYPPFVLHESHEDPEKISDAANSHSKKFVRHLHQHIEKHLLKDIKQAVRKPELKFHEKSKEETFDKITWHYGEETEYHGRPFKIDVQVVCTHEDAMVFVDYKTHPVGAN”, with “soluble”.
Then “MATLATKKATLVAALKDLQRVTVAFSGGIDSTLVLKMALDVLGRDNVTAVVANSELFTDEEFDKAMSLAEELGANVQGTTLDYLSDDHIKNNTPDSWYYAKKMFYSRLNDIAANNGSAAVLDGMIKNDENDYRPGLKARSEAGARSLLQEADFFKTDVRALAQELGLTNWNKVASCSVSSRFPYGTTLTHDNIAQVMAAEKYLRSLGFPTVRVRFHNDIARIELPEARIGDFLVFNDRVNRQLQSLGFRYVTLDLGGFRSGRMNDTLTKAQLATFA”, with “not soluble”; and “MELINKDTLQIKEFISSLDSMLDGIESIVKHYKPHLNGERFLSNNEVSKKLNVSLRTLQEWRDTGLIPFIQIKGKIIYRQSDIDKLLQKHYFEGWKE”, with “not soluble”; and “MISNNTRRVYRISFSFFEQYCLEHNLQSLPADPRSIISFIGHQKELLQASTGMQLSKQTLTTRIAAIRFYHIQAGFPTPTEHPQVIRVMRGLSRNHHRLVQDYDQQPLEHHHHHH”, with “not soluble”.
Then “MRNLVKYAGIGLLVMGLAACDNNDTKASAESAAAESQASGQPISLMDGKLSFSLPADMTDQSGKLGTQANNMHVYSDPTGQKAVIVIVGDNTDEALPVLANRLLEQQRSRDPQLQVVTNKSIELKGHTLQQLDSIISAKGQTAYSSIVLGKVDNQLLTIQVTLPADNQQKAQTTAENIINTLVIK”, with “not soluble”; and “MIGNLKLKRFEEVNLVLSGGAAKGIAHIGVLKALEELGIKVKRLSGVSAGAIVSVFYASGYTPDEMLKLLKEVNWLKLFKFKTPKMGLMGWEKAAEFLEKELGVKRLEDLNIPTYLCSADLYTGKALYFGRGDLIPVLLGSCSIPGIFEPVEYENFLLVDGGIVNNLPVEPLEKFKEPIIGVDVLPITQERKIKNILHILIRSFFLAVRSNSEKRKEFCNVVIEPPLEEFSPLDVNKADEIFLRGYESTLRIMRNFVKHLEHHHHHH”, with “not soluble”.
As for “MPLAKDLLHPLPAEEKRKHKLKRLVQHPNSYFMDVKCPGCYRITTVFSHAQGVVVCAGCATILCQPTGGRAKLTEGCSFRRKPQLEHHHHHH”, the “soluble on expression in E. coli” value is “not soluble”.
As for “MHDISSLTTRTKTLPPLRVGVGGPVGSGKTTLLEMVCKAMYPQFDLIAITNDIYTKEDQRLLTLSGALPPERILGVETGGCPHTAIREDASINLIAIDQMLEQFPDADIVFVESGGDNLAATFSPELSDLTLYIIDVASGEKIPRKGGPGITKSDLFIINKTDLAPYVGADLAVMEADTRRMRGDKPFVMCNLKTGDGLDQVIAFLKTEGLFRGLEHHHHHH”, the “soluble on expression in E. coli” value is recorded as “soluble”.
Then “MGHHHHHHGGHMSLDEFDLIHSITPRTIHHSSVDVGIGDDAALYTAKHGVQEIVCVDTMVEDVHFKLHYSSPEDIGYKALAVNISDIAAMGGIPKFYLVSLAVPSKWTESEIKAMYEGMNELAKLYHMDLIGGDTVSTADKLVVTVTVIGEIEKGQACLRSLAKPNDIVFVTGEIGSSAAGLSLLLEETNPQNSSVETDYFIHRHKRPEPRVSVGRLCSIFKRAALNDVSDGLASELNEIAEASCVSIEIVESMLPIHSDLPKLHPNWKEWALFGGEDFELTGTVSNEEWEVLKQECAALHLPITKIGYVREKTKSKVILKTDQTSMILEKKGYNHFEGGS”, with “soluble”; and “VAPLGLSVPSDVELPPTAKMHAIIERTASFVCRQGAQFEIMLKAKQARNSQFDFLRFDHYLNPYYKFIQKAMKEGRYTVLAENKSDEKKKSGVS”, with “soluble”; and “MSGSVPFIRRLAVIGVGLIGGSLARALRTAGAVGEIIGIDRDEANLRQAAELGVVDRAAATVAEGVAGADMVFLSVPVRAMAGVVREIAPHLAAGCIVTDGGSVKAEVVAACDPLMPAGTCFVGGHPIAGTEHSGVGASFATLYQGKRCILTPAATTDRDALATVARMWEAAGSEVVLMDPEKHDRVVAAISHLPHMVAYALVNAVEGYDRFEESILRYSAGGFRDFTRIASSDPAMWRDIALMNREGVLEMMDHFAAYFGQLRSLVAAGDAEGLERFFRDSKESRDAILLEHHHHHH”, with “soluble”.

The values are drawn from the DeepSol protein solubility set.
